B1: Adagio protein 1 (Arabidopsis thaliana (Mouse-ear cress)), Q94BT6 (parent)
chain: MEWDSGSDLSADDASSLADDEEGGLFPGGGPIPYPVGNLLHTAPCGFVVTDAVEPDQPIIYVNTVFEMVTGYRAEEVLGGNCRFLQCRGPFAKRRHPLVDSMVVSEIRKCIDEGIEFQGELLNFRKDGSPLMNRLRLTPIYGDDDTITHIIGIQFFIETDIDLGPVLGSSTKEKSIDGIYSALAAGERNVSRGMCGLFQLSDEVVSMKILSRLTPRDVASVSSVCRRLYVLTKNEDLWRRVCQNAWGSETTRVLETVPGAKRLGWGRLARELTTLEAAAWRKLSVGGSVEPSRCNFSACAVGNRVVLFGGEGVNMQPMNDTFVLDLNSDYPEWQHVKVSSPPPGRWGHTLTCVNGSNLVVFGGCGQQGLLNDVFVLNLDAKPPTWREISGLAPPLPRSWHSSCTLDGTKLIVSGGCADSGVLLSDTFLLDLSIEKPVWREIPAAWTPPSRLGHTLSVYGGRKILMFGGLAKSGPLKFRSSDVFTMDLSEEEPCWRCVTGSGMPGAGNPGGVAPPPRLDHVAVNLPGGRILIFGGSVAGLHSASQLYLLDPTEDKPTWRILNIPGRPPRFAWGHGTCVVGGTRAIVLGGQTGEEWMLSELHELSLASYLT

In this assay the parent is B1. The conditions noted are these: with skp1a_arath SKP1A.
L213A: the “effect of a mutation on the interaction” value was “decreasing interaction”.
With L200A, the “effect of a mutation on the interaction” value is listed as “decreasing interaction”.

The values are drawn from IntAct's records for PubMed 15447654.
